Experimental data reported in publication PMC6495647.

Molecular target: MucA’ protein (plasmid pKM101 (host species not stated))
Test: SPR; BIAcore 2000, kinetic analysis at lower ligand densities (577 RU of immobilized β, 1036 RU of immobilized MucA’ on CM5); MucB in the mobile phase; BSA reference cell; apparent constants; data not shown

B1: MucB protein (enzyme)
chain: MFALIDVNGMYASCEQAFRPDLANRAVAVLSNNDGNIVARNYLAKKAGLKMGDPYFKVRPIIERHNIAIFSSNYTLYASMSARFAAVVESLASHVEQYSIDELFVDCKGITAAMSLDAFGRQLREEVRRHTTLVCGVGIARTKTLAKLCNHAAKTWPATGGVVALDDGARLKKLMSILPVAEVWGVGHRTEKALATMGIKTVLDLARADTRLIRKTFGVVLERTVRELRGEACFSLEENPPAKQQIVVSRSFGQRVETLTDMQQAVTGFAARAAEKLRNERQYCRVISVFIRTSPYSVRDTQYANQATEKLTVATQDSRTIIQAAQALARIWREDIAYAKAGVMLADFSGKEAQLDLFDSATPSAGSEALMAVLDGINRRGKNQLFFAGQGIDNSFAMRRQMLSPDYTTDWRSIPIATIK
- Kd: 1.99 nM
- amount bound (RU): 355 RU
- koff: 0.000127 s⁻¹
- kon: 63900 M⁻¹ s⁻¹
